Test results: US20240336909

Experiments:
[1] = target: AxCT mask27 EGFR EH104 L001 version 1
[2] = target: AxCT mask27 EGFR EH104 L040 version 1
[3] = target: AxCT mask27 EGFR EH104 L041 version 1
[4] = target: AxCT mask27 EGFR EH104 L043 version 1
[5] = target: AxCT mask27 EGFR EH104 L054 version 1
[6] = target: AxCT mask27 EGFR EH104 L055 version 1
[7] = target: AxCT mask27 EGFR EH104 L056 version 1
[8] = target: AxCT mask27 EGFR EH104 L057 version 1
[9] = target: AxCT mask27 EGFR EH104 L058 version 1
[10] = target: AxCT mask27 EGFR EH104 L059 version 1
[11] = target: AxCT mask27 EGFR EH104 L060 version 1
[12] = target: AxCT mask27 EGFR EH104 L061 version 1
[13] = target: AxCT mask27 EGFR EH104 L062 version 1
[14] = target: AxCT mask27 EGFR EH104 L063 version 1
[15] = target: AxCT mask27 EGFR EH104 L064 version 1
[16] = target: AxCT mask27 EGFR EH104 L065 version 1
[17] = target: AxCT mask27 EGFR EH104 L066 version 1
[18] = target: AxCT mask27 EGFR EH104 L067 version 1
[19] = target: AxCT mask27 EGFR EH104 L068 version 1
[20] = target: AxCT mask27 EGFR EH104 L069 version 1
[21] = target: AxCT mask27 EGFR EH104 L070 version 1
[22] = target: AxCT mask27 EGFR EH104 L071 version 1
[23] = target: AxCT mask27 EGFR EH104 L072 version 1
[24] = target: AxCT mask27 EGFR EH104 L073 version 1
[25] = target: AxCT mask27 EpCAM H90 L001 version 1
[26] = target: AxCT mask27 EpCAM H90.2 L040 version 1
[27] = target: AxCT mask27 EpCAM H90.2 L041 version 1
[28] = target: AxCT mask27 EpCAM H90.2 L043 version 1
[29] = target: AxCT mask27 EpCAM H90.2 L059 version 1
[30] = target: AxCT mask27 EpCAM H90.2 L060 version 1
[31] = target: AxCT mask27 EpCAM H90.2 L061 version 1
[32] = target: AxCT mask27 EpCAM H90.2 L063 version 1
[33] = target: AxCT mask27 EpCAM H90.2 L064 version 1
[34] = target: AxCT mask27 EpCAM H90.2 L073 version 1
[35] = target: AxCT mask27 EpCAM H90.2 L075 version 1
[36] = target: AxCT mask27 EpCAM H90.2 L076 version 1
[37] = target: AxCT mask27 EpCAM H90.2 NCLV

B1: Matriptase (protein)
chain: VVGGTDADEGEWPWQVSLHALGQGHICGASLISPNWLVSAAHCYIDDRGFRYSDPTQWTAFLGLHDQSQRSAPGVQERRLKRIISHPFFNDFTFDYDIALLELEKPAEYSSMVRPICLPDASHVFPAGKAIWVTGWGHTQYGGTGALILQKGEIRVINQTTCENLLPQQITPRMMCVGFLSGGVDSCQGDSGGPLSSVEADGRIFQAGVVSWGDGCAQRNKPGVYTRLPLFRDWIKENTGV
[1]
  Percent cleavage: 37%
[2]
  Percent cleavage: 67%
[3]
  Percent cleavage: 62%
[4]
  Percent cleavage: 59%
[5]
  Percent cleavage: 37%
[6]
  Percent cleavage: 53%
[7]
  Percent cleavage: 39%
[8]
  Percent cleavage: 36%
[9]
  Percent cleavage: 23%
[10]
  Percent cleavage: 33%
[11]
  Percent cleavage: 62%
[12]
  Percent cleavage: 20%
[13]
  Percent cleavage: 52%
[14]
  Percent cleavage: 49%
[15]
  Percent cleavage: 0%
[16]
  Percent cleavage: 0%
[17]
  Percent cleavage: 0%
[18]
  Percent cleavage: 0%
[19]
  Percent cleavage: 0%
[20]
  Percent cleavage: 0%
[21]
  Percent cleavage: 13%
[22]
  Percent cleavage: 0%
[23]
  Percent cleavage: 0%
[24]
  Percent cleavage: 0%
[25]
  Percent cleavage: 42%
[26]
  Percent cleavage: 93%
[27]
  Percent cleavage: 80%
[28]
  Percent cleavage: 79%
[29]
  Percent cleavage: 39%
[30]
  Percent cleavage: 92%
[31]
  Percent cleavage: 22%
[32]
  Percent cleavage: 68%
[33]
  Percent cleavage: 0%
[34]
  Percent cleavage: 0%
[35]
  Percent cleavage: 0%
[36]
  Percent cleavage: 0%
[37]
  Percent cleavage: 0%

B2: MMP-7 (protein)
chain: YSLFPNSPKWTSKVVTYRIVSYTRDLPHITVDRLVSKALNMWGKEIPLHFRKVVWGTADIMIGFARGAHGDSYPFDGPGNTLAHAFAPGTGLGGDAHFDEDERWTDGSSLGINFLYAATHELGHSLGMGHSSDPNAVMYPTYGNGDPQNFKLSQDDIKGIQKLYGKRSNSRKK
[1]
  Percent cleavage: 71%
[2]
  Percent cleavage: 0%
[3]
  Percent cleavage: 0%
[4]
  Percent cleavage: 0%
[5]
  Percent cleavage: 24%
[6]
  Percent cleavage: 67%
[7]
  Percent cleavage: 6%
[8]
  Percent cleavage: 0%
[9]
  Percent cleavage: 0%
[10]
  Percent cleavage: 0%
[11]
  Percent cleavage: 9%
[12]
  Percent cleavage: 26%
[13]
  Percent cleavage: 25%
[14]
  Percent cleavage: 37%
[15]
  Percent cleavage: 28%
[16]
  Percent cleavage: 60%
[17]
  Percent cleavage: 0%
[18]
  Percent cleavage: 0%
[19]
  Percent cleavage: 0%
[20]
  Percent cleavage: 0%
[21]
  Percent cleavage: 9%
[22]
  Percent cleavage: 30%
[23]
  Percent cleavage: 0%
[24]
  Percent cleavage: 27%
[25]
  Percent cleavage: 92%
[26]
  Percent cleavage: 0%
[27]
  Percent cleavage: 0%
[28]
  Percent cleavage: 0%
[29]
  Percent cleavage: 0%
[30]
  Percent cleavage: 9%
[31]
  Percent cleavage: 35%
[32]
  Percent cleavage: 48%
[33]
  Percent cleavage: 32%
[34]
  Percent cleavage: 43%
[35]
  Percent cleavage: 0%
[36]
  Percent cleavage: 0%
[37]
  Percent cleavage: 0%

B3: MMP-1 (protein)
chain: FVLTEGNPRWEQTHLTYRIENYTPDLPRADVDHAIEKAFQLWSNVTPLTFTKVSEGQADIMISFVRGDHRDNSPFDGPGGNLAHAFQPGPGIGGDAHFDEDERWTNNFREYNLHRVAAHELGHSLGLSHSTDIGALMYPSYTFSGDVQLAQDDIDGIQAIYGRSQNPVQPIGPQTPKACDSKLTFDAITTIRGEVMFFKDRFYMRTNPFYPEVELNFISVFWPQLPNGLEAAYEFADRDEVRFFKGNKYWAVQGQNVLHGYPKDIYSSFGFPRTVKHIDAALSEENTGKTYFFVANKYWRYDEYKRSMDPGYPKMIAHDFPGIGHKVDAVFMKDGFFYFFHGTRQYKFDPKTKRILTLQKANSWFNCRKN
[1]
  Percent cleavage: 40%
[2]
  Percent cleavage: 6%
[3]
  Percent cleavage: 0%
[4]
  Percent cleavage: 0%
[5]
  Percent cleavage: 0%
[6]
  Percent cleavage: 10%
[7]
  Percent cleavage: 6%
[8]
  Percent cleavage: 7%
[9]
  Percent cleavage: 0%
[10]
  Percent cleavage: 0%
[11]
  Percent cleavage: 0%
[12]
  Percent cleavage: 0%
[13]
  Percent cleavage: 0%
[14]
  Percent cleavage: 0%
[15]
  Percent cleavage: 0%
[16]
  Percent cleavage: 10%
[17]
  Percent cleavage: 6%
[18]
  Percent cleavage: 0%
[19]
  Percent cleavage: 0%
[20]
  Percent cleavage: 0%
[21]
  Percent cleavage: 0%
[22]
  Percent cleavage: 0%
[23]
  Percent cleavage: 0%
[24]
  Percent cleavage: 0%
[25]
  Percent cleavage: 48%
[26]
  Percent cleavage: 0%
[27]
  Percent cleavage: 0%
[28]
  Percent cleavage: 0%
[29]
  Percent cleavage: 0%
[30]
  Percent cleavage: 0%
[31]
  Percent cleavage: 0%
[32]
  Percent cleavage: 0%
[33]
  Percent cleavage: 0%
[34]
  Percent cleavage: 0%
[35]
  Percent cleavage: 0%
[36]
  Percent cleavage: 0%
[37]
  Percent cleavage: 0%
